For the assay, the target named is T1, Recombinant Ubiquitin activating enzyme E1 (human) - UBA1 (human, UniProt P22314 1-1058).
T1 sequence: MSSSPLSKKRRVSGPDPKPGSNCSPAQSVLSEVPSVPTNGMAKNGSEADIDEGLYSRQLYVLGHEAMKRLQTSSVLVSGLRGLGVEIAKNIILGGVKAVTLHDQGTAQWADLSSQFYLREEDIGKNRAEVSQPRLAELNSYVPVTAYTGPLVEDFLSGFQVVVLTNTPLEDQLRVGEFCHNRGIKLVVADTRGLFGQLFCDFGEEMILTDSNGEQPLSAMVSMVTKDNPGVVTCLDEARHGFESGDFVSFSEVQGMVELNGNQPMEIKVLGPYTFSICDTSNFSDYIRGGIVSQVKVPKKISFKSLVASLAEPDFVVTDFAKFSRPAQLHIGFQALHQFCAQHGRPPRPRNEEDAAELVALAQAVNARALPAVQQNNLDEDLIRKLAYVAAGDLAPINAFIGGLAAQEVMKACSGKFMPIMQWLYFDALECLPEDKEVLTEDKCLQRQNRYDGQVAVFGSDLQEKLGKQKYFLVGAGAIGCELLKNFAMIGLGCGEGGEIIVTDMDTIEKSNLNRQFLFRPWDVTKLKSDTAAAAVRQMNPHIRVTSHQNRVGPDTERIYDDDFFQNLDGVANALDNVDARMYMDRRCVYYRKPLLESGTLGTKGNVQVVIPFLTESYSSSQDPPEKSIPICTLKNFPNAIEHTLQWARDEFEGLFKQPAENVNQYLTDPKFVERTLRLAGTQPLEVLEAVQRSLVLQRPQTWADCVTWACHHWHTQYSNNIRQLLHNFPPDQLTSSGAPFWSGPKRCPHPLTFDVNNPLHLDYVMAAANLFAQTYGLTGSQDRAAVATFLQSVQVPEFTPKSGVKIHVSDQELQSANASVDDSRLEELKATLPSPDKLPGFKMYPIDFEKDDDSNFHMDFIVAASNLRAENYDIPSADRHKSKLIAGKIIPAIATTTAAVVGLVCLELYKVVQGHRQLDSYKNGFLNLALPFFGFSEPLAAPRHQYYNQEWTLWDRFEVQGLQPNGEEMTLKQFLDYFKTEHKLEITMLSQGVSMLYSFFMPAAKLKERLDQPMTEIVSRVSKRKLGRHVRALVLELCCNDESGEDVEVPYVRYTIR
The assay is described as follows: in vitro oxidation and non-reducing immunoblot of a disulfide-linked complex. (In general: A western blot detects proteins with antibodies after separation by electrophoresis.)

B1: recombinant Rad6 (enzyme)
chain: MSTPARRRLMRDFKRMKEDAPPGVSASPLPDNVMVWNAMIIGPADTPYEDGTFRLLLEFDEEYPNKPPHVKFLSEMFHPNVYANGEICLDILQNRWTPTYDVASILTSIQSLFNDPNPASPANVEAATLFKDHKSQYVKRVKETVEKSWEDDMDDMDDDDDDDDDDDDDEAD
For the molecule B1, the binding result is reported as “binds”.

(Values after article PMC9215706 (Cell reports, 2022).)
